{
  "source": "paper doi:10.1101/2024.09.05.611430",
  "about": "(bioRxiv, 2024)",
  "biological_target": "the molecule itself",
  "assay": "cryo-EM structure",
  "note": "“And” between values parts separate entries of the source, which are not always exact repeats. Identical values can stand only once.",
  "data": [
    {"protein": "Mpn444 (Mycoplasma pneumoniae lipoprotein, recombinant, without the N-terminal signal sequence, aa 28-1325) (natural protein, UniProt P75334 28-1325, looked up) CAQPTASTVEGLFKPSSAFADRTDFSLSSILQKSLINRESFNQYLAMRLAPVLRTFYEDNYDTDIKERLNGFTADTDNAFVSQEQNLRNQFRENYLVHLQTDIFDNTGGNQAAWKLRDVNNKIIDDFISRIFAKNFVEYVQDGVGPLTKPTKSLIENTSNFKNIKLQPKFVNKNAKLKINNDAVYAAIQDKLLDQFITNENPNLVSRVVFTNETPVDGFDNYFNTKVIQSPTPSYQFQVFNKYNQQSGGTKGANGFNLLASNLKSYKNDQSKGIDIPNKFSSDSGGKLLLKASDMFDTFDPSFSAAFIQGYLALQKKSKGADSKEVDSLIKDKSIIENFFVDNNTQAAAAARAASSSSEGTIQLKTASDGGGTTQSTVHKTDLVKIFGDKDVFAGEYKQQIGNTNANQTGGGGSGGGGGTSTGSSTGSSTETTTGNSSKAVVDLIEVKKDSSSQPDYILSRGKDGIHLMAVDGGSHYLTESGRDVAKQKKFLLFRALQTKYGLVDTDTTYDFKLFDEVKKYFDTNRILFLFEALLDLSSDTNNKDNFLSYPQFKKFADSIKSIEKDLKELVQAHYKQAVFNETAVAENKVTLKLAERNQPFIDNERNNQIEQNGLAAKLPYEQDAKTGHYNDLGNYYKDIIDNVDKKGTSTVKTTSSNTGQTKNFSEEVVSKLKDNKKKVEEAAKKHVEALKVFTIPSPLYSQVILVQTKLSFTPESTSLGLNLALNNYLTSTELQNSIKLSYFQEDEAFKKIIDITNLTFSQQSGGTGGTNGNNNLTADNWKIFKETYLLDLFESQAQKSIFGHVGSSDKNSSTKTGIEGVLDTLYSSLNLEERLDSDDVIDYLSYLYTAHWLLKDNLKNYKQSLQSKLSRTSNAFLVWSVDSEKNKNDSQSTLSSTASSTSNTGLIQLRSVVSLAQNQAAGQGGDNNSDITQTEVKNPNFVFGSSVYDWTNSKTPEVNRAADDTSSFFYTKSSSSSTGAAQSSATVLRSLNQASGMTTKTAKNRYGFRGIVTSSTSGSLPEAVSRRLFKQFVNQTEKGVKVGGQMLITTAKSGKATLVLKQQADDAESTTNNAYKGALFSFGSMDNLKNIINGIQTQTEFDALYNHLTSDLNIDVTGVDKNKTLTEQKTSLTSFVDSNFKQSTQSAQRGDTSARSARSATVQIKKTQEDNQNTNYKDVFSRFDGYIGDNKVEEKNYTSYQFLSDGGKYHATFVKQVNLDDVEKIGTDSLKQEDSSKDKRLNLSLEEFLAAIALEALDPNNQTQAINALISGNKKGLVKVGDFRIFSSISAQWVRRF", "values": [
      {"measurement": "stoichiometry N", "result": "3 and 2"}
    ]}
  ]
}
